Here are results for 18 sequences from a protein production outcome set (Wang et al. 2014).
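Note: failed if final PepcDB status was selected cloned or expressed and not failed if soluble or beyond.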

The data set can be described thus: label from the status in PepcDB records.
For “MASLGFNLGFTFSNAQIQQHRKVSGGGRARVISCNSSSSSSSQASSPQGISAVTPLEIELEFFGPKPGSDGSYPVDKAKAVSGDKLLRSIMQDNKIELYAAYGKVMNCGGGGSCGTCIVEILDGRDLLNERTDTENRYLKKKPESWRLACQTIVGNKENSGKSALDIGCRAADSTVEEVN”, the protein production result is reported as “failed”.

As to “MASLGSAAAGEPATGAEAEPGPPAPPPPPPPPPAPSPSALGPLLPLQREPLYNWQATKASLKERFAFLFNSELLSDVRFVLGKGRGAAAAGGPQRIPAHRFVLAAGSAVFDAMFNGGMATTSAEIELPDVEPAAFLALLRFLYSDEVQIGPETVMTTLYTAKKYAVPALEAHCVEFLTKHLRADNAFMLLTQARLFDEPQLASLCLDTIDKSTVDAISAEGFTDIDIDTLCAVLERDTLSIRESRLFGAIVRWAEAECQRQQLAVTFGNKQKVLGKALSLIRFPLMTIEEFAAGPAQSGILSDREVVNLFLHFTVNPKPRVEYIDRPRCCLRGKECCINRFQQVESRWGYSGTSDRIRFTVNRRISVVGFGLYGSIHGPTDYQVNIQIIEYEKKQTLGQNDTGFSCDGTANTFRVMFKEPIEILPNVCYTACATLKGPDSHYGTKGLKKVVHETPAASKTVFLFFSSPGNNNGTSIEDGQIPEIIFYT”, the protein production entry is “failed”.

Consider “MASMTMTSSFLPTVSNLPANISSNSRRSLTVVKASGSENTTSLENKKQEQSMKMRRDLVFTAAAAAVCSLAKVAMADDEPKRGTEAAKKKYAPVCVTMPTAKICRN”, for which the protein production entry is listed as “failed”.

Take “MASRSKPSVRAFARQVHLWLGLSIGVLFAVVGLTGSILVFYTAIDDALHPEIRLRGAAPPPSWEQVYQTARATYPDKAGPWRFEVTEAGGDIPARYYKPPERADRDFAPMMVWFSADGGRVIRRDYWGEYAMTWVYDLHHRLLLQATGGAILGWSGLAMLALMVAGLTAWWPRRGGWRKALQMKPRAAPLRKLYDWHKQTGLWSFGLLVLLTLTGVLLALPKESEIALRPILGPPAGAPTIDKSITFDPGTRISVDQAVAIAQGALPGARLAWIETPSTDSGVYRLRLQTPGDPSRRFPHSFVWITPATGEVLAMTDARQAGAHDVLLNWTHPLHDASAGGLPARLLAVLVGLAPSALLILGFMRWRQRLRPQERKLSDHS”: the protein production entry is on record as “failed”.

Take “MASRSRRPERRQEPLSRERIVGAAVELLDTVGERGLTFRALAERLATGPGAIYWHITGKAELLGAATDAVVTAAVTAGPTGAADSPQDAVRAVALGLWDATEAHPWLATQLATQLSRTPWGTVAPRIFESLGRQVQAMGVPEAHWFTASSALMHYILGAAGQNAANSASAGPVGADVDRDEFLDTVSTAWEGLDPDAYPFTRAVADQVRGHDDREQFLAGITLVLTGITALHRPGR”: the protein production result is “not failed”.

Turning to “MASSAFAFPSYIITKGGLSTDSCKSTSLSSSRSLVTDLPSPCLKPNNNSHSNRRAKVCASLAEKGEYYSNRPPTPLLDTINYPIHMKNLSVKELKQLSDELRSDVIFNVSKTGGHLGSSLGVVELTVALHYIFNTPQDKILWDVGHQSYPHKILTGRRGKMPTMRQTNGLSGFTKRGESEHDCFGTGHSSTTISAGLGMAVGRDLKGKNNNVVAVIGDGAMTAGQAYEAMNNAGYLDSDMIVILNDNKQVSLPTATLDGPSPPVGALSSALSRLQSNPALRELREVAKGMTKQIGGPMHQLAAKVDEYARGMISGTGSSLFEELGLYYIGPVDGHNIDDLVAILKEVKSTRTTGPVLIHVVTEKGRGYPYAERADDKYHGVVKFDPATGRQFKTTNKTQSYTTYFAEALVAEAEVDKDVVAIHAAMGGGTGLNLFQRRFPTRCFDVGIAEQHAVTFAAGLACEGLKPFCAIYSSFMQRAYDQVVHDVDLQKLPVRFAMDRAGLVGADGPTHCGAFDVTFMACLPNMIVMAPSDEADLFNMVATAVAIDDRPSCFRYPRGNGIGVALPPGNKGVPIEIGKGRILKEGERVALLGYGSAVQSCLGAAVMLEERGLNVTVADARFCKPLDRALIRSLAKSHEVLITVEEGSIGGFGSHVVQFLALDGLLDGKLKWRPMVLPDRYIDHGAPADQLAEAGLMPSHIAATALNLIGAPREALF”, the protein production entry is on record as “failed”.

In the case of “MASSISAAEVKVVPEEYNFLQKHVAFFDRNKDGIVYPSETFQGFRAIGCGYLLSTFAAVFINISLSSKTRPGKGFSFSFPIEVKNVRLGIHSSDSGVYDKDGRFVASKFEEIFAKHAHTHRDALTSKELKELLKANREPNDCKGGILAFGEWKVLYNLCKDKSGLLHKEIVRAVYDGSLFEQLEKQRSSKTP”, the protein production result is “failed”.

Turning to “MASTGASRSLAASPRPPQGRSSRQDKYSVLLPTYNERENLPLIVWLLVKSFSESAINYEIIIIDDGSPDGTREVAEQLAEIYGPDRILLRPREKKLGLGTAYIHGIKHATGNYVIIMDADLSHHPKFIPEFIRKQKEGNFDIVSGTRYKGNGGVYGWDLKRKIISRGANFITQILLRPGASDLTGSFRLYRKEVLQKLIEKCVSKGYVFQMEMIVRARQMNYTIGEVPISFVDRVYGESKLGGNEIVSFLKGLLTLFATT”, the protein production result is on record as “failed”.

In the case of “MASVKLPWDLEEEILSRLPPRSLVRFRTVCKHWNGLFSDKRFVKKHLVRARPQFIFLTESKKMYSIEIDLGGTIEVREVPYDFHCQPMKKNFTTIMACDGLLFRDFWKQGVAVWNPWLRQVGWIEYEDKGFRFCGVGYDSCKPDKCYKILGYFNCTRRLSDSLQEGYYQAAIYECASQAFKFIDTPNPFNLWPNKDPLSVNGNLYWLAHNHPETLEYFIETFDFSMEIFKPFCLLPCRKDFGSNELVLAVFKEDRFSLLKQCFETTKIEIWVTKMKIDREEEVVWIKFMTLPTTNLPNLDDTYCCSSYFIFDKTIIMCCGDYKTGATCIYMVRGDMFKKIQINSGIFQFSYCVYLPNLISVPFESHQV”, the protein production entry is “failed”.

In the case of “MASVSGNSTAPDSAAVVTVQDPLSDYVQGLFLDMKGDYWGAIDIFRKVLVRKPADPAVHYSISQSYYRLAVLDSARVYGEAAVRLDPSNRYYLRYLAVVAHDMRDYDRAAELYGQASLLEPDRTEIMYLQGLEYMAAKRLEPALEVFRKAVRIDPYNEAAFAQTLALEIALKHYPEAIDTSKQLLKLGGNERKIGITLAELYTKTGQETLAVQTLQELIAGDRSNITYWIALFDHYIMVGRNDDFHRELAVFLERASLPPESLHDLAKLYILRSGKDSLYVAPTIALLDELTARRPRDSELFMLKGMFGMMHGHQQEGVVLFRKAVQLDSSNATAWEYLISTQLDLGQKRQAFALLAKARRRLPGQRFRWSVLEGSLLLSSHKLRRAVAVLETVAGTKRKPGDPNLLIQANINLAMACDLLGMKKRSRSAYERVLDLDPHNTLAMNNLAYLFTEEGITLRKALRLATNAVMLEPENGVYLDTLGWVHYKLGNFELARQFLEKAAATGLDEPDIYRHLGEVYRKLGNEPKAREMLEKARTVEKTQGNKKSGH”, the protein production entry is reported as “failed”.

Regarding “MASYFDEHDCEPSDPEQETRTNMLLELARSLFNRMDFEDLGLVVDWDHHLPPPAAKTVVENLPRTVIRGSQAELKCPVCLLEFEEEETAIEMPCHHLFHSSCILPWLSKTNSCPLCRYELPTDDDTYEEHRRDKARKQQQQHRLENLHGAMYT”, the protein production entry is “failed”.

Regarding “MASYSEDQCSWRGSGLSQAVKNVEQVWLRCAEGSVEWLYPAGALRLTLSPRLPWSAMGPGESSRSPVSVCVKPDPHWGGAQLYLERDGVLELLVGDETSTTPGPAHVRCFSALPGERPALFLQATPHRDISRRIAAFRYELRGDWTAQPAVNTDPVSSEGACRPCNNTEILMAVCTSDFVVRGNIRSVGTDSNLNAAVIKVSATRVYRQKFALFPESGRLTRSGEIRTPLQCGVRPGAGSFLFTGRVHFGEAWLGCAPRYKDFLKAYEQAKQSLMIPCTLVND”, the protein production entry is on record as “failed”.

As to “MASYSLVESNSFGSENWCLKLQPSYKHGLLTGLSNGEIRLLDWSTGKSVQKIKASETAINDMKVIGSDFSAGHLVSSASIDAVKVFDIRTNDRIAQIQNEANSPFISLDSRHGLLACGTELQGIDAAVYIYDIRKWDTPLRSLIDSHHDDVTCIKFHPSDVNILLSGSTDGYTNIYDLKQDEEEDALHQVINYASIHSCGWLSPKRIFTLSHMETFAIHELNDKSDELKEPQPLDFGDVREIWNCDYVVDIYPGLIATGKTQENCGELCLLPFKDEKVDTENGIVIPHAHGDEVVRDIFIPAQHSNMLYSCGEDGCVKIWENKQGPLDIPENFWDYSKKMNVLGDDDREGSINLDEPLIIQKESVSTRPRKEKHKKAKKHSMKSRFKPY”, the protein production entry was “failed”.

For “MATETLTKSDAITQSLRAAVDRNFNDQVAFLQRMVQFRSVRGEEAPQQEWLAQQFADRGYKVDTFSLADVDIASHPKAAPMDTIDPAGSMQVVATADSDGKGRSLILQGHIDVVPEGPVDLWSDPPYEAKVRDGWMIGRGAQDMKGGVSAMIFALDAIRTAGYAPDARVHVQTVTEEESTGNGALSTLMRGYRADACLIPEPTGHTLTRAQVGAVWFRLRVRGTPVHVAYSETGTSAILSAMHLIRAFEEYTKELNAQAVRDPWFGQVKNPIKFNVGIIKGGDWASSTAAWCELDCRLGLLTGDTPQEAMRGIEKCLADAQATDSFLSENPAELVWSGFQADPAVCEPGGVAEDVLTAAHKAAFNAPLDARLSTAVNDTRYYSVDYGIPALCYGPYGQGPHAFDERIDLESLRKTTLSIALFVAEWCGLRKL”, the protein production entry was “not failed”.

Regarding “MATETQIRIGVMGCADIARKVSRAIHLAPNATISGVASRSLEKAKAFATANNYPESTKIHGSYESLLEDPEIDALYVPLPTSLHVEWAIKAAEKGKHILLEKPVAMNVTEFDKIVDACEANGVQIMDGTMWVHNPRTALLKEFLSDSERFGQLKTVQSCFSFAGDEDFLKNDIRVKPGLDGLGALGDAGWYAIRATLLANNFELPKTVTAFPGAVLNEAGVILSCGASLSWEDGRTATIYCSFLANLTMEITAIGTKGTLRVHDFIIPYKETEASFTTSTKAWFNDLVTAWVSPPSEHTVKTELPQEACMVREFARLVGEIKNNGAKPDGYWPSISRKTQLVVDAVKESVDKNYQQISLSGR”, the protein production entry is recorded as “not failed”.

Take “MATIGLDRLYYSKITEDANGEETYAQPSVLAKAITAELSVELVEAILYADDGAAEVVKDFNSGTLTLGVDDIGPMVAADLTGASTDDNGVLISASENVGTPVAVGFRAQRANGTYRYFWLYRVKFGLPATNLQTKADSITFSTPTIEGTVMRRNKLDGLGKHPWKAEVTEGDPGVSSTTITGWFTEVYEPVYTPEP”: the protein production result is “failed”.

On to “MATIGSLLLWAITIYSYMIIGYILMSWFPNARESSFGQFLGSIVEPYLAPFRKIIPPLGMIDISPIVAIFALTFARYGVHAIFF”, for which the protein production result is recorded as “failed”.

Take “MATIHVDGKTLEVDGADNLLQACLSLGLDIPYFCWHPALGSVGACRQCAVKQYTDENDKRGRLVMSCMTPATDNTWISIEDEEAKQFRASVVEWLMTNHPHDCPVCEEGGHCHLQDMTVMTGHNERRYRFTKRTHQNQELGPFIAHEMNRCIACYRCVRYYKDYAGGTDLGVYGAHDNVYFGRVEDGVLESEFSGNLTEVCPTGVFTDKTHSERYNRKWDMQFAPSICHGCSSGCNISPGERYGEIRRIENRYNGSVNHYFLCDRGRFGYGYVNREDRPRQPLLVLSKQKLSLDGALDQAAALLKERKVVGIGSPRASLESNFALRELVGEGNFYSGINEGELDRLRLILQVMQEGPLPVPSIRDIEDHDAVFVLGEDLTQTAARIALALRQSVKGKAVEMAADMKVQPWLDAAVKNIAQHAQNPLFIASVSATRLDDVAEETVHAAPDDLARLGFAVAHAIDPSAPSVADLDPQAQAFAQRITDALLAAKRPLVVSGNSLGNKALIEAAANIAKALKQREKNGSISLVVGEANSLGLALFGGDSVEAALERLTSGQADAVVVLENDLYRRTDAARVDAALAAAKVVIVADHQQTATTAKAHLVLPAASFAEGDGTLVSQEGRAQRFFQVFDPTYYDARNMVREGWRWLHAIHSTLQGKRVDWTQLDHVTEAVAEAKPILAGIRDAAPAASFRIKGLKLAREPHRYSGRTAMRANISVHEPRTPQDIDSAFAFSMEGYSGSQEDRQQIPFAWSPGWNSPQAWNKFQDEVGGHLRAGDPGVRLIEPKGEGLDWFQAVPVPFSAKADSWKVVPLYHLFGSEENSSRAAPIQQRIPETYVALSKEDADRLGVNDGATLGFQLKGQALRLPLRIDEQLGAGLIGLPVGFAGIPAAIAGCSVEGLQ”: the protein production entry was “failed”.
